# Laboratory results published in article PMC3207831, “Determinants of the Differential Antizyme-Binding Affinity of Ornithine Decarboxylase” (PLoS ONE, 2011).
# Experiments:
# [1] = biological target: ODC_7M (ODC_Q119H/A124R/N125D/Q129D/E136V/V137D/M140E) (human) (UniProt P11926)
# [2] = biological target: human ornithine decarboxylase, wild type (human) (UniProt P11926)
# [3] = biological target: ODC_Q119H/V137D/M140E (human) (UniProt P11926); assay: AUC; sedimentation velocity, 20°C, 42,000 rpm, absorbance at 280 nm; ODC fixed at 0.3 mg/mL, AZ 0.03, 0.06 or 0.09 mg/mL; global fit to the AB hetero-association model (SEDPHAT)
# [4] = biological target: ODC_7M(-Q119H) (ODC_A124R/N125D/Q129D/E136V/V137D/M140E) (human) (UniProt P11926); assay: as above
# [5] = biological target: ODC_7M (ODC_Q119H/A124R/N125D/Q129D/E136V/V137D/M140E) (human) (UniProt P11926); assay: as above
# [6] = biological target: human ornithine decarboxylase, wild type (human) (UniProt P11926); assay: as above
# [7] = biological target: ODC_7M(-V137D) (human) (UniProt P11926); assay: as above
# [8] = biological target: the molecule itself; assay: AUC; sedimentation velocity, 20°C, 42,000 rpm, continuous size distribution (SEDFIT); ODC in the absence of AZ
"ODC enzyme activity left with increasing AZ (ODC 20 μg/mL, AZ 0 to 28 μg/mL); value at a molar ratio of 1:1 AZ:ODC [1] [%]","ODC enzyme activity left with increasing AZ (ODC 20 μg/mL, AZ 0 to 28 μg/mL); value at a molar ratio of 2:1 monomeric AZ to dimeric ODC [2] [%]",Kd [3] [nM],Kd [4] [nM],Kd [5] [nM],Kd [6] [nM],Kd [7] [nM],Molecule,stoichiometry N [8]
90,30,9950,1420,12400,220,1200,antizyme (from UniProt P54368 1-228) (natural protein),–
–,–,–,–,–,–,–,"human ornithine decarboxylase, wild type (enzyme, UniProt P11926 1-461, looked up, human ornithine decarboxylase (ODC, EC 4.1.1.17); Homodimer in the absence of AZ by sedimentation velocity; also called hODC; source: E. coli JM109 (pQE30), purified (Ni-NTA)) MNNFGNEEFDCHFLDEGFTAKDILDQKINEVSSSDDKDAFYVADLGDILKKHLRWLKALPRVTPFYAVKCNDSKAIVKTLAATGTGFDCASKTEIQLVQSLGVPPERIIYANPCKQVSQIKYAANNGVQMMTFDSEVELMKVARAHPKAKLVLRIATDDSKAVCRLSVKFGATLRTSRLLLERAKELNIDVVGVSFHVGSGCTDPETFVQAISDARCVFDMGAEVGFSMYLLDIGGGFPGSEDVKLKFEEITGVINPALDKYFPSDSGVRIIAEPGRYYVASAFTLAVNIIAKKIVLKEQTGSDDEDESSEQTFMYYVNDGVYGSFNCILYDHAHVKPLLQKRPKPDEKYYSSSIWGPTCDGLDRIVERCDLPEMHVGDWMLFENMGAYTVAAASTFNGFQRPTIYYVMSGPAWQLMQQFQNPDFPPEVEEQDASTLPVSCAWESGMKRHRAACASASINV",2
